Measured values reported in patent US20240101667A1, “METHODS FOR IDENTIFYING LILRB-BLOCKING ANTIBODIES” (THE BOARD OF REGENTS OF THE UNIVERSITY OF TEXAS SYSTEM, priority 2020, published 2024).
Values belong to the molecule of their own block, whether it stands above or below them.

Legend:
[1] = tested on: LILRAs and other LILRBs; test: Cross-reactivity with LILRAs and other LILRBs (binding analyses); set-up: species or system human; conditions: versus LILRAs and other LILRBs
Method: (§1) FIGS. S6A-J. Development of anti-LILRB3 blocking antibodies for suppressing AML development. (FIG. S6a) Upper: Flow chart of strategy for development of fully humanized antibodies against LILRB3. Lower: The identified antibodies were tested in the LILRB3 chimeric receptor reporter cell assay. (FIG. S6b) ELISA results for LILRB3 binders. (FIG. S6c) EC50 values of the anti-LILRB3 antibodies based on ELISA. (FIG. S6d) Affinities of antibodies #32, #33, #67, and #45 to LILRB3 as determined by Octet. (FIG. S6e) Cross-reactivity of the anti-LILRB3 antibodies with LILRAs evaluated with LILRA binding analyses. (FIG. S6f) Cross-reactivity of the anti-LILRB3 antibodies with other LILRBs evaluated with LILRB binding analyses. (FIG. S6g) Interaction with TRAF2 contributes to the effect of LILRB3 on AML development. CFU assay of MLL-AF9 AML cells expressing wild-type LILRB3 or mutant LILRB3 with mutations disrupting TRAF2 binding (AAA, QEE509-511AAA) or disrupting SHP-1/2 interactions (Y596/626F) in the presence of control or anti-LILRB3 antibodies (n=3 wells). […] (FIG. S6j) NF-κB signaling target gene expression (measured by qPCR) in THP-1 cells from BM of xenografted NSG mice treated with anti-LILRB3 #1NA or IgG (n=3 individual samples). The data are presented as mean±s.e.m, and p values were calculated by two-tailed t-test except for FIG. S6i by log-rank test.

[2] = tested on: MLL-AF9 AML cells; test: CFU assay of mouse MLL-AF9 AML cells; type: cell-based; conditions: for colony formation by MLL-AF9 cells: screen of the high-affinity IgGs
From the text: (§2) FIGS. 7A-N. Blocking anti-LILRB3 antibody prevents monocytic AML development. (FIG. 7A) Epitope binning of 30 high-affinity IgGs. (FIG. 7B) CFU assay of mouse MLL-AF9 AML cells in the presence of above IgGs (n=3 independent experiments). (FIG. 7C) Binding affinities of the two IgGs from bin #3. (FIG. 7D) Upper: Schematic of treatment. Lower: Percentages of GFP^+ MLL-AF9 mouse AIL cells in peripheral blood (PB), bone marrow (BM), spleen (SPL), and liver (LV) of mice transplanted with AML cells expressing B3-FL or B3delICD and injected with IgG or anti-LILRB3 #1 N297A (n=3 independent mice). (FIG. 7E) Overall survival of mice transplanted with indicated AML cells as above. (FIG. 7F) CFU assay of MLL-AF9 mouse AML cells expressing B3-FL or B3delICD in the presence of IgG or anti-LILRB3 #1 N297A (n=3 independent experiments) (FIG. 7G) Upper: Schematic of treatment. Recipient mice were injected with mouse IgG or anti-mCD8 to deplete CD8 T cells. Lower: Percentages of GFP^+ MLL-AF9 mouse AML cells in peripheral blood (PB), bone marrow (BM), spleen (SPL), and liver (LV) of mice transplanted with AML cells expressing B3-FL or B3delICD and injected with IgG or anti-LILRB3 #1 LALAPG (n=4 mice). (FIG. 7H) Survival of mice as in panel h (n=4 independent mice). (FIG. 7I) Upper: Schematic of treatment. Lower: Whole-body images of NSG mice transplanted with luciferase-expressing THP-1 cells and treated with IgG or anti-LILRB3 #1 N297A (#1NA). (FIG. 7J) Overall survival of the mice shown in panel h (n=3 independent mice). (FIG. 7K) Upper: Schematic of treatment. Lower: Whole-body images of NSG mice transplanted with luciferase-expressing Molm13 cells, injected with activated T cells, and treated with IgG or #1NA. (FIG. 7L) Luciferase signaling as a function of time in mice treated as described in panel k. (FIG. 7M) Overall survival of mice treated as described in panel k (n=3 independent mice). (FIG. 7N) Analyses of T cells in peripheral blood of mice treated as described in panel 1 at 22 days after Molm13 AML cell transplantation. Upper: Flow cytometry analyses. Lower: Plot of T cell percentages (n=3 independent mice). The data are presented as mean±s.e.m, and p values were calculated by two-tailed t-test except for FIG. 7E, FIG. 7H, FIG. 7J and FIG. 7M by log-rank test.
as §1, with “development.” for “development. CFU assay of MLL-AF9 AML cells expressing wild-type LILRB3 or mutant LILRB3 with mutations disrupting TRAF2 binding (AAA, QEE509-511AAA) or disrupting SHP-1/2 interactions (Y596/626F) in the presence of control or anti-LILRB3 antibodies (n=3 wells).”, “The data are presented as mean±s.e.m, and p values were calculated by two-tailed t-test except for FIG. S6i by log-rank test.” left out

[3] = biological target: T1, LILRB3 (Homo sapiens, UniProt O75022); test: Affinity measurement with Octet RED96; type: binding; conditions: compared between the two IgGs of bin 3
Method: (§3) Affinity measurement and epitope binning: Affinity measurement and epitope binning were done as described previously (Gui et al., 2019). Briefly, antibody affinity was analyzed with the Octet RED96 instrument. Antibody ([…]) was loaded onto the protein A biosensors then exposed to a series of concentrations of recombinant LILRB3 (0.1-200 nmol/L), and background subtraction was used to correct for sensor drift. ForteBio's data analysis software was used to extract association and dissociation rates assuming a 1:1 binding model. The Kd was calculated as the ratio koff/kon. Epitope binning of anti-LILRB3 rabbit antibodies was performed with an Octet RED96 instrument using a classical sandwich epitope binning assay. In these epitope binning assays, primary antibodies (40 μg/ml) were loaded onto protein A biosensors, and remaining Fc-binding sites on the sensor were blocked with a human non-targeting IgG (200 μg/ml). The sensors were then exposed to the 1 μM LILRB3 diluted in 1× kinetics buffer, followed by the secondary antibodies (40 μg/ml). Raw data were processed using ForteBio's Data Analysis Software 7.0. Antibody pairs were assessed for competitive binding. […]

[4] = biological target: T1, LILRB3; test: Octet-based epitope binning assay; type: binding; conditions: Octet sandwich binning
Method: as §3

[5] = tested on: MLL-AF9 AML cells expressing B3-FL or B3delICD; test: Immuno-competent mice transplanted with MLL-AF9 AML cells expressing B3-FL or B3delICD; type: in vivo, mouse; conditions: versus IgG
From the text: as §2, with “(FIG. 7N) Analyses of T cells in peripheral blood of mice treated as described in panel 1 at 22 days after Molm13 AML cell transplantation. Upper: Flow cytometry analyses. Lower: Plot of T cell percentages (n=3 independent mice).” left out, “test. […]” for “test.”

- specificity to LILRB3 [1]: specific to LILRB3
- binding affinity [3]: higher affinity than #26
- LILRB3 epitope bin [4]: third bin
B1: #1: fully human anti-LILRB3 blocking IgG, epitope bin 3; B3-1 VH SEQ ID NO: 341, VL SEQ ID NO: 395 (antibody, V domains shown)
VH: EVQLVESGGGVVQPGRSLRLSCAASGFTFSSYGMHWVRQAPGKGLEWVAFIRYDGSNKYYADSVKGRFTISRDNSKNTLYLQMNSLRAEDTAVYYCAKAGFSGWYYYGMDVWGQGTMVTVSS
VL: DIVMTQSPSSLSASVGDRLTITCRASQSISTYLNWYQQKPGKAPKLLIYGASSLQSGVPSRFSGSGSGTDFTLTISSLQPEDFATYFCQQSYGLPLTFGGGTKVDIK
modifications: Synthetic antibody
- colony formation by MLL-AF9 cells [2]: blocked colony formation by MLL-AF9 cells

B2: anti-LILRB3 #6: anti-LILRB3 antibody which cannot inhibit LILRB3 signaling; B3-6 VH SEQ ID NO: 345, VL SEQ ID NO: 399 (antibody, V domains shown)
VH: QVQLQQSGPGLVKPSQTLSLTCAISGDSVSSNSAAWNWIRQSPSRGLEWLGRTYYRSKWYNNYAVSVKSRITINPDTSKNQFSLQLNSVTPEDTAVYYCARALAGIDGFDVWGQGTTVSVSS
VL: AIQLTQSPSSLSASVGDRITITCRASQSISKYLNWYQQKPGEAPKLLIYAASSLQSGVPSRFSGSGSGTDFTLTISSLQPEDFATYYCQEKDNFGQGTKLEIK
modifications: Synthetic antibody
- progress of AML with B3-FL and with B3del ICD [5]: suppresses the progresses of both AML with B3-FL and AML with B3del ICD with similar efficacies
- inhibition of LILRB3 signaling ([2]; FIG. 7b): cannot inhibit LILRB3 signaling

- specificity to LILRB3 [1]: specific to LILRB3
- LILRB3 epitope bin [4]: third bin
B3: #26: fully human anti-LILRB3 IgG, epitope bin 3; B3-26 VH SEQ ID NO: 353, VL SEQ ID NO: 407 (antibody, V domains shown)
VH: QVQMVESGGGLVKPGGSLRLSCAASGFTFSDHYLSWIRQAPGKGLEWVSYIDLSGSTVYYGDSVKGRFTISRDNARNSVYLQMNSLRAEDTAVYYCARGHYGLDVWGQGTMVTVSS
VL: NIQMTQSPSTLSASVGDRVTISCRASQSIGTWLAWYQQKPGKAPQLLIYKASSLHSGVPSRFSGSGSGTEFTLTISSLQPDDFATYYCQQYNLYSRTFGQGTKVEIK
modifications: Synthetic antibody
- colony formation by MLL-AF9 cells [2]: blocked colony formation by MLL-AF9 cells
